± gives the standard deviation of the averaged measurements.
test system: Saccharomyces cerevisiae; test: protein stability index of tFT-peptide fusion (C-terminal peptide) (PSI (0-1 scale)); higher = more stable (slower turnover); details: genetic background: wild type; temperature: 30 C
Protocol: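 Multiplexed protein stability (MPS) profiling in S. cerevisiae. Random 12-aa peptides (tFT-X12 library) are fused to the C-terminus of a sfGFP-mCherry tandem fluorescent timer, after mCherry and a GGGS linker. Cells are FACS-sorted into 8 mCherry/sfGFP bins and deep-sequenced. The protein stability index (PSI) is the read-weighted bin average, scaled from 0 (unstable) to 1 (stable). Only peptides with >10 reads are reported; cells were grown at 30 °C in SC-His with glucose.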
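Further: PSI is a weighted mean of sequencing reads over stability bins, variants kept only with over 10 reads, mCherry proximal and sfGFP distal, peptide attached via GGGS linker.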

Row | Sequence | protein stability index
1 | ILLFSLKHRSDH | 0.63 ± 0.018
2 | ILLLKFSKLNKK | 0.66 ± 0.033
3 | ILLPLRHHSFSD | 0.643 ± 0.0087
4 | ILLSLSRWGMAG | 0.723 ± 0.024
5 | ILLYSPFGPPSS | 0.673 ± 0.026
6 | ILPPPYVPARLS | 0.577 ± 0.054
7 | ILSDRVLRVGVK | 0.65502 ± 0.00049
8 | ILSWSGLSTGLE | 0.876 ± 0.065
9 | ILTALRNQPFLM | 0.669 ± 0.033
10 | ILTPPPLPDLLP | 0.706 ± 0.019
11 | IMKRNKKIKREI | 0.711 ± 0.024
12 | INKKKQRIRGKN | 0.69 ± 0.064
13 | INLRENETKQRN | 0.673 ± 0.038
14 | INPKSGIVVKFR | 0.679 ± 0.04
15 | IPDRSLFPWTGR | 0.661 ± 0.012
16 | IPFEPSGPFMRN | 0.7362 ± 0.007
17 | IPLPPHLTPPST | 0.677 ± 0.086
18 | IPPDAFAQLTYS | 0.733 ± 0.0093
19 | IPVGTVGTLNAA | 0.66 ± 0.057
20 | IQRLGTKNTNRI | 0.647 ± 0.039
21 | IRLLNKAACVTM | 0.742 ± 0.04
22 | IRLSCGRVGGVV | 0.648 ± 0.012
23 | IRLYGQATFRWE | 0.625 ± 0.086
24 | IRNDERHSKNQD | 0.74 ± 0.062
25 | IRNGYVGNYKGN | 0.744 ± 0.025

Row | Sequence | protein stability index
26 | IRQRSRGGLSSD | 0.684 ± 0.021
27 | IRYARSYDMSEC | 0.654 ± 0.04
28 | ISCWHGYAKESS | 0.671 ± 0.039
29 | ISIVKENSSLTC | 0.6552 ± 0.0053
30 | ISPCCGVPWLLR | 0.708 ± 0.025
31 | ISRFSLTFPFHR | 0.6947 ± 0.0039
32 | ISRSLVDHQARP | 0.695 ± 0.045
33 | ISVLSIFVDSFV | 0.528 ± 0.0062
34 | ISWCPRHPFSSD | 0.752 ± 0.014
35 | ISWERIHEKKRK | 0.784 ± 0.096
36 | ISYGSGCGIVNH | 0.683 ± 0.054
37 | ISYYDVYLSFLF | 0.745 ± 0.13
38 | ITGPPTGSPRYR | 0.588 ± 0.23
39 | ITIVVATRPPGA | 0.617 ± 0.013
40 | ITLFPKGLRANK | 0.686 ± 0.045
41 | ITLLYFAGVSVL | 0.513 ± 0.0074
42 | ITRATPILSYKK | 0.677 ± 0.09
43 | ITSLQAPPEYLH | 0.6922 ± 0.0062
44 | ITTVRGALLARY | 0.666 ± 0.068
45 | ITYRTSGMGIRA | 0.6182 ± 0.0028
46 | IVALDGWPGVEA | 0.7226 ± 0.0055
47 | IVCLWVAGHFGL | 0.602 ± 0.014
48 | IVHIKRVLGNAA | 0.636 ± 0.012
49 | IVPVCFVTDQHA | 0.6605 ± 0.00071
50 | IWGGAVQARFKG | 0.733 ± 0.14

Row | Sequence | protein stability index
51 | KADLKTKNMCRL | 0.765 ± 0.017
52 | KAEKMRARQKED | 0.657 ± 0.011
53 | KAGKFLVGKSLS | 0.657 ± 0.026
54 | KCPPQKRPTLIQ | 0.679 ± 0.098
55 | KDEVESGRGLIS | 0.633 ± 0.044
56 | KDRGEIKIRTKN | 0.696 ± 0.039
57 | KDTDTAHETERK | 0.697 ± 0.033
58 | KDTHNEKKGTPS | 0.686 ± 0.082
59 | KECTWRQGKYNA | 0.752 ± 0.089
60 | KEEKNEENNKKE | 0.641 ± 0.033
61 | KEIRNNEKKKKK | 0.657 ± 0.013
62 | KEKIGIQIKKKR | 0.675 ± 0.047
63 | KELQKKRIKKKN | 0.733 ± 0.078
64 | KEQKNNRKVTKK | 0.715 ± 0.046
65 | KERQERGKRKII | 0.536 ± 0.035
66 | KGDKIEFVENKY | 0.641 ± 0.022
67 | KGDPKLTKKKPL | 0.613 ± 0.077
68 | KGKRQNIERCRK | 0.644 ± 0.099
69 | KGVEVPGERMVG | 0.742 ± 0.021
70 | KGVLTKRAVPST | 0.703 ± 0.025
71 | KHGLSDRAPLPK | 0.698 ± 0.05
72 | KHGSKEAHKNEN | 0.695 ± 0.015
73 | KHKKKKKEYKKK | 0.729 ± 0.03
74 | KHKRDRNIYKVT | 0.679 ± 0.026
75 | KHRGAQRSRARH | 0.645 ± 0.012

Row | Sequence | protein stability index
76 | KHSRKPTHKKLI | 0.69 ± 0.016
77 | KHTKRIRLYKTK | 0.7831 ± 0.0034
78 | KIGNDQNVEDRK | 0.756 ± 0.059
79 | KIIARMEKGKEI | 0.771 ± 0.042
80 | KIKEKNEKRELI | 0.686 ± 0.11
81 | KIKGVKEEIVKM | 0.686 ± 0.029
82 | KIKKKKKNKTNR | 0.676 ± 0.014
83 | KIKKKRGKTKKK | 0.708 ± 0.018
84 | KIKKNKNKKKKS | 0.686 ± 0.009
85 | KIKNYNSGKIKK | 0.716 ± 0.024
86 | KIKTNLRQKTKN | 0.654 ± 0.016
87 | KIKVKTKKWNIK | 0.681 ± 0.018
88 | KILRRIFRNGGA | 0.615 ± 0.062
89 | KIMKINIYQKKR | 0.691 ± 0.028
90 | KINQDKKKGKKK | 0.686 ± 0.079
91 | KIQGGKQKTVDD | 0.824 ± 0.25
92 | KIYESPLLEIKI | 0.617 ± 0.032
93 | KKEDNKEKYRKK | 0.667 ± 0.013
94 | KKEKDKTINKQK | 0.697 ± 0.067
95 | KKEKEKRRDRWR | 0.661 ± 0.014
96 | KKENKSKKIINR | 0.568 ± 0.028
97 | KKGKIKKFIIKK | 0.694 ± 0.17
98 | KKGPANEWKRGE | 0.685 ± 0.081
99 | KKGRGEGTKKKR | 0.602 ± 0.047
100 | KKGYKTVETRIS | 0.69 ± 0.082

Row | Sequence | protein stability index
101 | KKINKEINKEKM | 0.693 ± 0.022
102 | KKITSIHKKRER | 0.822 ± 0.12
103 | KKKDKKVKRRKV | 0.769 ± 0.031
104 | KKKEGRMKQIYE | 0.688 ± 0.0088
105 | KKKEKTSEEKKK | 0.701 ± 0.029
106 | KKKGDKVGTKEQ | 0.657 ± 0.048
107 | KKKIKIQPRTEN | 0.7302 ± 0.0065
108 | KKKKDKEIIHKE | 0.758 ± 0.12
109 | KKKKEEKQKGLK | 0.69 ± 0.028
110 | KKKKEISNEAKQ | 0.672 ± 0.093
111 | KKKKFQDQKIDE | 0.629 ± 0.0068
112 | KKKKKEKNKIKI | 0.689 ± 0.14
113 | KKKKKGASEDNI | 0.786 ± 0.1
114 | KKKKKKKEKKAK | 0.644 ± 0.042
115 | KKKKKKKEYKKK | 0.752 ± 0.038
116 | KKKKKKKKKNNK | 0.6851 ± 0.0035
117 | KKKKKKKYKQRK | 0.706 ± 0.05
118 | KKKKKKTNKKKE | 0.758 ± 0.065
119 | KKKKKKVKNTKE | 0.698 ± 0.047
120 | KKKKNKKKNKKK | 0.669 ± 0.011
121 | KKKKNKKKTKKT | 0.784 ± 0.17
122 | KKKNKKKEKKKN | 0.714 ± 0.049
123 | KKKNNEKLEEKK | 0.687 ± 0.0098
124 | KKKNNKRKAKNK | 0.6918 ± 0.0012
125 | KKKNQLSKVTKR | 0.702 ± 0.031

Row | Sequence | protein stability index
126 | KKKRNSYMKGNR | 0.681 ± 0.1
127 | KKLAPHPLTTRV | 0.642 ± 0.078
128 | KKLKQTRRKKEN | 0.7296 ± 0.0068
129 | KKMSGNKLKNKN | 0.643 ± 0.013
130 | KKNAFIYKRRPR | 0.714 ± 0.04
131 | KKNHTQIKEVPR | 0.6943 ± 0.00099
132 | KKNHYKAICNRR | 0.619 ± 0.0075
133 | KKNICIKVENSY | 0.676 ± 0.031
134 | KKNKEKGEREKK | 0.615 ± 0.058
135 | KKNKGKGREVRI | 0.67 ± 0.049
136 | KKNKKKKEKKAK | 0.625 ± 0.025
137 | KKNKQEKPKKPK | 0.698 ± 0.0062
138 | KKNSTKKKKESW | 0.633 ± 0.029
139 | KKPHKTKGICYT | 0.673 ± 0.012
140 | KKQHTIKKKKKR | 0.734 ± 0.028
141 | KKQKKKQNKQKT | 0.731 ± 0.026
142 | KKQKPKVTSTKT | 0.712 ± 0.037
143 | KKQRKRKMTERG | 0.742 ± 0.11
144 | KKRKKDKRSQER | 0.671 ± 0.068
145 | KKRMDKIKDKKI | 0.713 ± 0.098
146 | KKRQNIAKSEDT | 0.701 ± 0.025
147 | KKRREKRTEKKQ | 0.661 ± 0.027
148 | KKSERRGQKDYE | 0.696 ± 0.028
149 | KKSGISSGPNDT | 0.689 ± 0.043
150 | KKSLNTKIQTRE | 0.707 ± 0.029

Row | Sequence | protein stability index
151 | KKTDNGSYERGE | 0.701 ± 0.018
152 | KKTKKGINVEER | 0.662 ± 0.0097
153 | KKTKKKRTEPQP | 0.724 ± 0.068
154 | KKTQKKKKLIPQ | 0.7046 ± 0.0062
155 | KKVGHGLRERGQ | 0.628 ± 0.061
156 | KKVKKKRSKKNT | 0.66 ± 0.17
157 | KKYNNMRKHYVK | 0.701 ± 0.02
158 | KLFWYLDCKLLY | 0.579 ± 0.0073
159 | KLIVPCSPIRLS | 0.6929 ± 0.0043
160 | KLKIDKKKNTFE | 0.728 ± 0.047
161 | KLLLYNILSYWS | 0.56105 ± 0.00055
162 | KMILVGMKKSVV | 0.6502 ± 0.0026
163 | KMNKTEYINGMT | 0.652 ± 0.038
164 | KNEEKIDKIEEQ | 0.72 ± 0.09
165 | KNFGHQGDVCRR | 0.734 ± 0.037
166 | KNKKFKKDEKTR | 0.773 ± 0.059
167 | KNKNKKTPARYR | 0.692 ± 0.015
168 | KNNKIKHIKVKN | 0.679 ± 0.017
169 | KNPKKMKKVTTK | 0.694 ± 0.0091
170 | KNQRTLKSPQEV | 0.6387 ± 0.0055
171 | KNQTDRRKKIIN | 0.648 ± 0.039
172 | KNVVSVRWERNE | 0.635 ± 0.084
173 | KPKKKNPREKPV | 0.669 ± 0.064
174 | KPPPSISLSWLE | 0.716 ± 0.0024
175 | KPQFNLQYTVKI | 0.616 ± 0.025

Row | Sequence | protein stability index
176 | KQHWIDDRNRIE | 0.716 ± 0.065
177 | KQKKKSQTKTRK | 0.718 ± 0.034
178 | KQKNKNNVKQPN | 0.693 ± 0.012
179 | KQKRQLPRKNET | 0.639 ± 0.0092
180 | KQLKKKKQIRRK | 0.728 ± 0.13
181 | KQNQKKREITAG | 0.664 ± 0.055
182 | KREEKKTKRKKK | 0.712 ± 0.048
183 | KRGKRKEGGKAR | 0.687 ± 0.065
184 | KRIRTKLKKTQK | 0.695 ± 0.011
185 | KRKKEKNQPTKR | 0.6972 ± 0.0044
186 | KRKKNKEENQTE | 0.708 ± 0.016
187 | KRLEFLTHAVFK | 0.7281 ± 0.0025
188 | KRSVSIESMTQA | 0.699 ± 0.011
189 | KSASIGTTLRNL | 0.699 ± 0.022
190 | KSDKVYKQKPNT | 0.705 ± 0.11
191 | KSIVAQGRLKPR | 0.685 ± 0.026
192 | KSKTYIKKTRKQ | 0.744 ± 0.031
193 | KSRRTTMINIRC | 0.668 ± 0.016
194 | KTALWQPNCKTD | 0.655 ± 0.011
195 | KTFGHQYVFIRK | 0.689 ± 0.013
196 | KTKKRHKENRKE | 0.791 ± 0.067

From the supplement of paper PMC10724198
